Assay results from the RNAGym collection of RNA variant scans (doi:10.1073/pnas.2313332121).

B1: TPR t1 (parent)
chain: GACCAAUCUGCCCUCAGAGCUCGAGAACAUCUUCGGAUGCAGAGGAGGCAGGCUUCGGUGGCGCGAUAGCGCCAACGUCCUCAACCUCCAAUGCAUCCCACCACAUGAUGAUGCCUGAAGAGCCUUGGUUUUUUG

Variants of: B1
Test: polymerase ribozyme fitness, log enrichment relative to wild type (log ratio); higher = more active; in vitro selection for triplet polymerase activity
Procedure, shortened: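 Mutant libraries were PCR-built and transcribed for each subunit of a heterodimeric triplet polymerase ribozyme and selected for one round in triplicate at −7 °C, frozen, before gel excision of extended constructs and streptavidin-bead capture. Input and output libraries were Illumina-sequenced, keeping genotypes with ≥10 input reads and ≥1 read per output. Fitness is a logarithmic ratio of genotype to wild-type enrichment, in base 2, using inverse-variance-weighted replicate averages.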

Row | Variant | polymerase ribozyme fitness (log ratio)
1 | A46G C53U | -1.01
2 | A46G C53U C89U G128A | -3.9
3 | A46G C56A C101G U126C | -2.14
4 | A46G C56A U133G | -0.786
5 | A46G C70G C94U | -3.9
6 | A46G C79A | -1.06
7 | A46G C85G | -2.68
8 | A46G C86G | -1.96
9 | A46G C88U C97A | -5.17
10 | A46G G51U | -2.98
11 | A46G G58C C99U C114G | -6.59
12 | A46G G61A | 0.179
13 | A46G G61A C80U C94U | -2.56
14 | A46G G61C G69U C97A A111U | -5.77
15 | A46G G63C A84G C88U C124U | -0.641
16 | A46G G63C G110U U116A U130C | -4.2
17 | A46G G77C C97U C124G | 0.934
18 | A46G G110U U116A | -4.29
19 | A46G G113A G120U U133A | -3.17
20 | A46G G117C | -3.96
21 | A46G G120C G128C | -2.6
22 | A46G G127A | -1.96
23 | A46G U54G C62G U78C C123U | -4.11
24 | A46U | -1.11

Row | Variant | polymerase ribozyme fitness (log ratio)
25 | A46U A74C C88G | -4.4
26 | A46U A74C U96A | -1.66
27 | A46U A74U A91G C123G | -3.09
28 | A46U A74U G113A | -1.99
29 | A46U A84C | -1.04
30 | A46U A84U | -1.28
31 | A46U A90U A105U C115U C124U | -5.04
32 | A46U A91C C115G | -3.55
33 | A46U A91G | -1.96
34 | A46U A100U | -1.69
35 | A46U A105C A119G C124A | -1.39
36 | A46U C53A | -0.885
37 | A46U C53A A111U | -4.45
38 | A46U C56A C72G G93A G120A C123U | -4.15
39 | A46U C56A G93A G120A C123U | -1.16
40 | A46U C56G U78C G93C G120U | -3.59
41 | A46U C56U | -0.82
42 | A46U C62A | -2.13
43 | A46U C62G C88A | -4.01
44 | A46U C62U A91U A103G U106A C114U U131G | -6.47
45 | A46U C64U C101U U132C | -1.55
46 | A46U C64U U81G | -6.35
47 | A46U C70U C124U | -0.517
48 | A46U C72G | -1.4

Row | Variant | polymerase ribozyme fitness (log ratio)
49 | A46U C72G C114G | -3.52
50 | A46U C72G C114U | -4.52
51 | A46U C73A C123G G127A | -0.933
52 | A46U C73G | -2.11
53 | A46U C73G G77U C101A C104U | -2.96
54 | A46U C73U | -1.08
55 | A46U C73U A90C U133A | -1.35
56 | A46U C79A C115G | -5.77
57 | A46U C101A U130G | -2.84
58 | A46U C114G | -3.78
59 | A46U C115A | -1.98
60 | A46U C124A U131C | 1.32
61 | A46U G47A A50G G60A | -3.56
62 | A46U G48A C62U | -2.23
63 | A46U G48A C104U | -1.94
64 | A46U G48A G128A | -4.23
65 | A46U G48A U87A G120A U129C | -0.344
66 | A46U G52A U109C C124G | -7.25
67 | A46U G57A C79G | -2.59
68 | A46U G57U U132A | -0.968
69 | A46U G58C C70A | -2.22
70 | A46U G60A C80A A121G | -1.19
71 | A46U G61A A66U G113U C123G U129A | -5.08
72 | A46U G61U | -0.648

Row | Variant | polymerase ribozyme fitness (log ratio)
73 | A46U G63U U78A A90U | -3.56
74 | A46U G77A C123A U129A | -2.69
75 | A46U G93A G120A G122A | -3.08
76 | A46U G107U | -5.66
77 | A46U G122U | -0.865
78 | A46U U55C A95C | -2.5
79 | A46U U106G | -2.72
80 | A46U U112A | 0.36
81 | A46U U125A | -1.67
82 | G47A A50U A91C | -4.79
83 | G47A A84C A121C | 0.928
84 | G47A A95C | -1.79
85 | G47A C49U | -0.915
86 | G47A C53G C101U U131A | -1.26
87 | G47A C56A G113U C114A A121G | -2.45
88 | G47A C56U C94U | -1.1
89 | G47A C62G C72U | -4.13
90 | G47A C70A G77A C79U C86G | -5.44
91 | G47A C70G | -4.77
92 | G47A C72G | -0.62
93 | G47A C72U U78A C88A A119U U132C | -1.87
94 | G47A C76A C115U | -3.07
95 | G47A C79U A100U A111U G120A U125G U131A U132C | -6.42
96 | G47A C85A | -2.48

Row | Variant | polymerase ribozyme fitness (log ratio)
97 | G47A C85U C101U | -2.15
98 | G47A C88U | -0.911
99 | G47A C102U | -2.85
100 | G47A C115U | -2.3
101 | G47A C124G | 0.559
102 | G47A G48A A118G | -2.29
103 | G47A G51C G63U C115A G120U U131G | -4.36
104 | G47A G58A C62U C101U A108G | -2.41
105 | G47A G61U | -1.24
106 | G47A G69C C86A C97U C115U C124G U125C | -5.52
107 | G47A G69U G77C C99U C114G | -3.2
108 | G47A G93U | -2.71
109 | G47A G120C | 0.156
110 | G47A G120C U130C | 0.162
111 | G47A U54A A90G U131G | -0.834
112 | G47A U54C U59A C94G A118C U130C | -5.44
113 | G47A U55A G60C A90U U92A | -4
114 | G47A U55A G60U A90U U92A | -2.67
115 | G47A U78C | -1.09
116 | G47A U78G U81A C86U U133G | -1.35
117 | G47A U87C U112A | 0.24
118 | G47A U87G | -0.336
119 | G47A U92C | -2.73
120 | G47C A66U A119U A121U | -0.0171

Row | Variant | polymerase ribozyme fitness (log ratio)
121 | G47C A90U | -4.3
122 | G47C A95G U133A | -2.16
123 | G47C A108G U112A U133A | -5.17
124 | G47C C49U C62U | -2.46
125 | G47C C53U C124A | 0.271
126 | G47C C56U | -1.01
127 | G47C C56U U106A C123A | -1.35
128 | G47C C62U C88U | -1.75
129 | G47C C64U A90C C104U | -2.77
130 | G47C C70U U78A | -1.82
131 | G47C C72G G113A U126A | -5.16
132 | G47C C79A | -5.18
133 | G47C C82U | -1.27
134 | G47C C88A C124A | -0.557
135 | G47C C101A | -2.59
136 | G47C C102A | -3.89
137 | G47C C123A | -0.0743
138 | G47C G48U C62U C85U A108U A111U G120C G122C | -6.85
139 | G47C G52C | -3
140 | G47C G52U A74G U96A | -4.89
141 | G47C G58A U112A G117U | -3.44
142 | G47C G61A G69A A111C U116A | -6.11
143 | G47C G61A U87A U92A | -5.03
144 | G47C G61U | -2.07

Row | Variant | polymerase ribozyme fitness (log ratio)
145 | G47C G71C G117U | -4.58
146 | G47C G71U | -1.65
147 | G47C G77U U116G | -3.46
148 | G47C U54G G58C G69U C123G | 0.703
149 | G47C U125G | -3.03
150 | G47U A50U U54A | -2.42
151 | G47U A105G | -3.69
152 | G47U A121C C123A G128A | -2.3
153 | G47U C53G C56G | -2.42
154 | G47U C53U A111G | -1.54
155 | G47U C56G | -3.09
156 | G47U C56G A118U G122A | -2.71
157 | G47U C56U | -1.38
158 | G47U C56U G113U | -4.43
159 | G47U C62U U78C G117C | -5.23
160 | G47U C64U U67C | -7.12
161 | G47U C70U | -1.87
162 | G47U C72A C76A C79A C80G C94G A100C U116G C124U U129A | -7.94
163 | G47U C72U U87C C98G U112A | -7.3
164 | G47U C73A U78C C88U A95G | -4.73
165 | G47U C89U G122A | -4.51
166 | G47U C94G | -3.51
167 | G47U C94U U106G G117U G120A | -5.71
